# Patent USRE50880 (Kymab Limited, dated 2026)
# Molecular target: Recombinant Human OX40L (Leader sequence, Isoleucine Zipper and FLAG Sequence Included) (human)
# Experiment: cell-based or functional assay
# Recombinant Human OX40L (Leader sequence, Isoleucine Zipper and FLAG Sequence Included) (human), sequence (chain, as listed by the source limits assumed): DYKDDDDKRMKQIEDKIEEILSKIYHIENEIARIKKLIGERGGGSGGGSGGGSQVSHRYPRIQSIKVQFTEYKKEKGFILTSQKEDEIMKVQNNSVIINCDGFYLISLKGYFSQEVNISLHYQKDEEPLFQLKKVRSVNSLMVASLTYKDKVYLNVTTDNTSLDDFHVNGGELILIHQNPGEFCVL
row,Primary T-cell Assay IC50 nM (recombinant OX40L induced IL2 release from primary human T cells),Binder
1,0.83 nM,"10A07 (human) (antibody, V domains shown) VH: EVQLVESGGVLVQPGGSLRLSCAASGFTFSSYIMTWVRQAPGKGLEWVSGISGSGGGTYYADSMKGRFTISRDNSKNTLYLQMNSLRVEDTAVYYCAKDRLGPITLVRGGYYYGMDVWGQGTTVTVSS VL: DIQMTQSPSSLSASVGDRVTITCRASQSISDYLNWYQQKPGKAPKFLIYAASSLQSGVPSRFSGSGSGTDFTLTVSSLQPEDFATYYCQQSYSTPRTFGQGTRVEIKR"
2,0.81 nM,"2D10 (human) (antibody, human IgG4 S228P, kappa, V domains shown) VH: EVQLVESGGGLVQPGGSLRLSCAASGFTFSNYAMNWVRQAPGKGLEWVSTISGSGGATRYADSVKGRFTISRDNSRNTVYLQMNSLRVEDTAVFYCTKDRLIMATVRGPYYYGMDVWGQGTTVTVSS VL: DIQMTQSPSSLSASVGDRVTITCRASQSISSYLNWYQQKPGKAPNLLIYAASSLQSGVPSRFSGSGSETDFTLTISSLQPEDFATYYCQQSHSVSFTFGPGTKVDIKR"
